From PMC314469, “Protein Interaction Networks by Proteome Peptide Scanning” (PLoS Biology, 2004)

T1: amphyphisin SH3 (AMPH_HUMAN), P49418
T1 chain: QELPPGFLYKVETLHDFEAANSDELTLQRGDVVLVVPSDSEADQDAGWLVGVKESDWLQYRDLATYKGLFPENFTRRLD


Assays:
[1] = target: T1, amphyphisin SH3 (AMPH_HUMAN), P49418; test: SPOT array
[2] = target: endophilin SH3 (SH3G2_HUMAN), Q99962; test: SPOT array

normalised SPOT signal, Boehringer light units (BLU); mean over the file's lines of this peptide [1] | normalised SPOT signal, Boehringer light units (BLU); mean over the file's lines of this peptide [2] | Binder
24 | 71.7 | LTWLPPKPPTAFDG [Q16827 346-360]
10700 | 17300 | MKKGPTRPPRPSTP [Q9Y4E6 583-597]
150 | 2850 | MKTSPRRPLILKRR [Q08050 1-14]
138 | 989 | MKRKPGRPRRSPPS [Q9UPS6 353-366]
408 | 48 | LVNTLKRPKRPPLR [Q9Y2E4 57-70]
27.1 | 14.8 | MENNLRRPNLEAFN [P08700 68-81]
73 | 4340 | MAGLPFRPPWGSLS [Q8WUS6 527-541]
25300 | 1160 | AQPQPLRPPRRVSS [Q99743 799-812]
2940 | 179 | LVVDPRRPFRKLNA [Q9H4M9 114-127]
3540 | 310 | LVSIPERPLRPPSE [Q9Y2W3 70-83]
27.1 | 34.5 | MAASLKRPDSGATG [P20849 777-790]
14800 | 19500 | LVIRPPRPPKVLRL [Q9H3C0 95-109]
295 | 236 | MDGFLSRPSRPLLQ [Q9P0N2 51-64]
39 | 157 | LYRFPGKPPTYVTD [Q9NU18 93-107]
1010 | 1910 | MKPPPRRPPGNISW [Q02246 907-921]
1270 | 1110 | LYGLLQRPVRLALG [Q9BZJ7 289-302]
68.7 | 213 | MHNFPLRPPPPPPP [Q96HR8 430-444]
732 | 49.7 | LVLEFLRPDRQGVT [Q14997 962-975]
789 | 234 | LYRGLSRPIRRTTQ [Q9H455 29-42]
153 | 185 | MAQSIYRPSKNLDK [Q13573 443-456]
88.8 | 627 | MSRVFKRPFSEPSA [Q9NW15 466-479]
42.9 | 70.6 | LYLRLKRPKPERDL [P11230 356-369]

Second part, the binder before the results:

Binder | normalised SPOT signal, Boehringer light units (BLU); mean over the file's lines of this peptide [1] | normalised SPOT signal, Boehringer light units (BLU); mean over the file's lines of this peptide [2]
MKVHIKRPEMTSSS [Q9GZZ2 864-877] | 27.3 | 163
MFQALKRPDDTAFQ [O94901 782-795] | 38.2 | 54.5
AQARLKRPLKSLDG [Q9NXU2 68-81] | 117 | 109
LVIRLPRPPKVLRL [Q9HC66 56-69] | 1960 | 2110
LYWLLRRPSGVVLS [Q96DN1 10-23] | 180 | 158
LVIRLRRPPLRSPR [Q9H8Y6 68-81] | 90.6 | 12900
MDFSPPRPPYPSYP [Q14934 712-726] | 18 | 978
LVNGFLRPLRMAAS [Q9UK56 265-278] | 4910 | 176
MFEDPTRPGKQQQL [Q14209 197-210] | 18.6 | 120
LWRRFGRPAKSSTP [Q9NS62 435-448] | 105 | 114
LWPPLYRPRRDAFE [Q13635 1311-1324] | 1260 | 3920
MEHSPQRPPRTEPT [Q96M26 524-538] | 14500 | 1100
LVIRLRRPPLRYPR [Q9HAJ1 68-81] | 387 | 6210
MKDIPKRPFSQSLS [Q9Y6E0 364-377] | 99.5 | 2820
LVIRPPRPPKVLGL [P39189 565-579] | 12400 | 20800
LVSRLRRPVSEVSG [Q96Q82 70-83] | 112 | 96.8
APVPLLRPHRPSGP [O15450 763-776] | 1350 | 704
LWRQPRRPIRIQQR [Q08493 32-45] | 3170 | 1000
LVNNFLRPLRMAAS [Q13972 262-275] | 12100 | 1250
LVPVPARPPLTRGQ [Q96EY9 124-138] | 2950 | 3430
